Results on 1 molecule are retold here after patent US20190062427A1.

For assay [1], the target named is Siglec-9-Fc (R&D Systems, catalog number 1139-SL-050) (human) (UniProt Q9Y336). Description: FACS ligand competition: 25 ug/ml mAb pre-coupled with 25 ug/ml Siglec-9-Fc, binding to sialic acid ligands on U937 cells, anti-human IgG-PE.
The target in assay [2] is human Siglec-9 expressed on human cells (human) (UniProt Q9Y336). The assay is described as follows: flow cytometry on human primary dendritic cells, 10 ug/ml mAb, PE secondary. In general terms: Flow cytometry measures light scatter and fluorescence of single cells or particles in a stream.
The target is the same in assay [3]. Description: flow cytometry on human primary macrophages, 10 ug/ml mAb, PE secondary.
The target of assay [4] is Histidine-tagged human Siglec-9 (NovoProtein) (human) (UniProt Q9Y336). Description: SPR Biacore T200, 25 C, 25 nM mAb captured on anti-mouse IgG CM5 chip, His-tagged Siglec-9 200 nM as analyte, single-concentration 1:1 fit. In general terms: Surface plasmon resonance follows binding to a sensor surface in real time, without labels.
Assay [5] addresses human Siglec-9 expressed on human cells (human) (UniProt Q9Y336). Description: cell-based or functional assay.
For assay [6] the target is unchanged. Description: flow cytometry on human primary monocytes, 10 ug/ml mAb, PE secondary.

human Siglec-9 expressed on human cells (human), sequence (Q9Y336 18-463): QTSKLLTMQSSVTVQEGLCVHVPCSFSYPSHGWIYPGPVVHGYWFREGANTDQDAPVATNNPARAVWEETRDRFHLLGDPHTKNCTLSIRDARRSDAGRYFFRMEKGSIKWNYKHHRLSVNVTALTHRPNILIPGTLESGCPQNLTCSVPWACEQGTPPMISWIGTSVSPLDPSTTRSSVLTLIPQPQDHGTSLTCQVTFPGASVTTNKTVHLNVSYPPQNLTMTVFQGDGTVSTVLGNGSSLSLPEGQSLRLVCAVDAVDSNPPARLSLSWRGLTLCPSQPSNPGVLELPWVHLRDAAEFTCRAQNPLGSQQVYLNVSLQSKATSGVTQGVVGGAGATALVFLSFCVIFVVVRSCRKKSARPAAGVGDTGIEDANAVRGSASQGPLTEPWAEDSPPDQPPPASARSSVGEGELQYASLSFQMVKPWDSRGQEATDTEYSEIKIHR
Histidine-tagged human Siglec-9 (NovoProtein) (human), sequence (Q9Y336 18-348 limits assumed): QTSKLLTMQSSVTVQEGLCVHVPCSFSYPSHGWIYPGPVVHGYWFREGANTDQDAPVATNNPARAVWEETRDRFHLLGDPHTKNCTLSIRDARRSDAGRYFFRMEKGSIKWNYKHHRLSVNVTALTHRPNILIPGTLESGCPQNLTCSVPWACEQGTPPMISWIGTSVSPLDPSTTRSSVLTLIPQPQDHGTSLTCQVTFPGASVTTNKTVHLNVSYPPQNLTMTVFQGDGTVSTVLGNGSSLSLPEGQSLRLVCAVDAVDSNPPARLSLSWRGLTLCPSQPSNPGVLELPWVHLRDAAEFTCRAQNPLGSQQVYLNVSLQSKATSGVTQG
Siglec-9-Fc (R&D Systems, catalog number 1139-SL-050) (human), sequence (Q9Y336 18-348 limits assumed): as above

B1: anti-Siglec-9 antibody 6D8 (antibody, IgG2b, V domains shown, part only)
VH: VQLQQSGAELVKPGASVKLSCKASGYTFTSYWMHWVKQRPGQGLEWIGEIDPSDSYTYYNQKFKGKATLTVDKSSSTAYMQLSSLTSEDSAVYYCAAYYSNYVRAYWGQGTLVTVSA
VL: DIQKPQSPFYMCVSGGETISISSHTTRGIYWYKGGSAEKPEKPFKLEIYCARNGEGGAPSRFSGRGSGTDFSLTINRGESEDCAEYYCAQFYQFPWTFGGGTKLEIK
Consider B1, for which the Percent Siglec-9-Fc Binding in assay [1] was 97.8%. Besides, in assay [2], the % Positive was 27.6% and the MFI amounted to 197. In addition, in assay [3], the % Positive amounted to 93.5% and the MFI was determined as 473. Besides, the Kd – broadly, the constant that tells how readily two partners part at equilibrium – in assay [4] worked out at 6.7 nM. In assay [5], this molecule displayed a Percent Siglec-9 Surface Expression, DCs (% Siglec-9) of 60.2%; a Percent Siglec-9 Surface Expression, Macrophages (% Siglec-9) of 21.3%; a Percent Siglec-9 Surface Expression, Microglia (% Siglec-9) of 45.4%; a Percent Siglec-9 Surface Expression, Monocytes (% Siglec-9) of 42.2%. In addition, the Percent Siglec-9 Surface Expression, THP-1 cells (% Siglec-9) in assay [5] was determined as 62.6%. Further, in assay [6], the % Positive stood at 29.6% and the MFI came to 198.
